{"source": "paper PMC4066779", "system": "GST-DDX6 (human)", "experiment": "EMSA", "note": "pKd: −log10 of the molar value."}
{"substance": "CUG-200 RNA", "values": [{"measurement": "pKd", "value": "> 6.60"}]}
